The data set can be described thus: soluble on expression in E. coli; label from the status in PepcDB or PDB records.
Take “ARFYSDGLKLAGTLFVPDDYEPGQKRPAVLICHGRFAIKEWVPSRWTPHFLAAGYVCMVFDYRNLGESEGTPGRIIPDEEVRDARHALTYLQCQPEVDPARIGALGWGLGGGVAVSAAAHDARIKAVVCAIGVANGGRYGRVGMSDAAWAARQEQIAADRRERVLTGRSARLPRTEILGRPDAQRAERHERQNWIDSLVAAVGPERAADPAKLGIPDEITLESMEALYDFAPDAVVDRIAPRPLLIVHARDDHEFPFEHAADMYERAAQPKQLIAVEDAGHLDWIDPAHPSQQVYVPQVVAWMQAQL”: the “soluble on expression in E. coli” value was “not soluble”.

For “MNALARRAAGLLLSTICLPLTALAADPQPTHEFTLDNGLKVVVREDHRAPVVVSQIWYKVGSSYETPGQTGLSHALEHMMFKGSSKTGPGESSLILRDLGAEENAFTSDDYTAYYQVLARDRLSVALELEADRMATLKLPADEFGREIEVIKEERRLRTDDKPMGKAFERFKAMAYPASGYHTPTIGWMADLERMKVEELRHWYESWYTPNNATLVVVGDVQPDEVKALAERFFGPIPRRDVPPSKKPLELAEPGERKITLHVKTQLPSLIYGFNVPSVATAEDPRSANALRLIAALLDGGYSARIPTRLERGEELVSGASSRYDAFARGDSLFMISATPNMQKKKTLADVEAGIWRLLDDLKTKAPSAEELERVRAQVIAGVVYERDSITSQATMIGELETVGLSWKLMDKELEDLQSVTPQDIQKAANTYFTRERLSVAHVLPEEKAK”, the “soluble on expression in E. coli” value is “not soluble”.

For the sequence “IDSGLSPSVLMASNSGRRSAPPLNLTGLPGTEKLNEKEKELCQVVRLVPGAYLEYKSALLNECHKQGGLRLAQARALIKIDVNKTRKIYDFLIREGYITKA”, the “soluble on expression in E. coli” value is “soluble”.

“MGSDKIHHHHHHMTEQVVATETVNLSQDSLQIAAYLAQPQAPGSYPGVVVLQEIFGVNGHIRDVTERIAKLGYVAIAPALFQRQAPGFETGYTPQDIEVGRGYAMQTKASELLNDIQAAIDYLKTLPQVKQNGFGCIGFCFGGHVAYLAATLPDIKATASFYGAGIATRTFGGGNPTVTRTPEIKGTLYGFFGTEDASIPPEQIDQIETELEKYNISHRVFRYDGADHGFFCDRRASYNPQAAADAWEQVQQLFKTVLTT”: the “soluble on expression in E. coli” value was “not soluble”.

Take “MAHHHHHHMQPLLRVPRAVHPHVERPLLGYLPPPVSHFSTKRNNCTGYDHPRGAPPQLNKTYHSQANFRDTKMEFCQVDLDEFCYKQFDSTKKSCSFIPYDKNEFLDKVNELIRQKKIKVVPGYAGFCKHIFVENFTEATVETIEINNKNRDLIKTDYISRRDNELPVLIRWISKKDVKDIIKAKYLDLILYSREQIEKENKETKTVPNRKSNCLYSIICIKPQNVDYELPMTPITMLRNTLISEGGSGINLNRDKYLESVKYWRHHVSIIDN”: the “soluble on expression in E. coli” value was “soluble”.

“PQEKVSRIHASSGTTGRPTVVGYTTGDLNNWADLVARSLRAGGVKPTDKVHVAYGYGLFTGGLGAHYGAERLGCTVIPMSGGMTDRQIQLIEDFEPDAIMVTPSYMLTIVDAMIKKGIDPSKTSLRTGVFGAEPWTEEMRTELEKQLNMDAVDIYGLSEVMGPGVAMECVDTKDGLHI”: the “soluble on expression in E. coli” value is on record as “not soluble”.

With “MSEILFINGKVRFPITIDPTVWIFDDRKVDLTTYFDETRENTSELETYLKNTSEHWDREIRDGAAFPPIQQSVKKYKKEQLITGTFGIPFHPFLANAEILEDATQVEIETVDHTMTLPLETVKNAILGFSKEGKPLKEDGPVHLYFNDGSNQQNPIRNIRKFTII”, the “soluble on expression in E. coli” value is on record as “not soluble”.

As to “MAAKRLAVLCIFLLPNTQFRQLRLAETAEELPQLLREAEKASWTYLEFLESITRYELAKREAKSLEKRMKWARFPFVKSLDEFELRGQNVLTARQLSQLRELSWLEQQYNLILLGPPGIGKTYIAIGLGLEAVYRGFHVYFATMGELVQLLKSEEYLNKSKVQLKRIRNADLVIIDDLMYMAMDQREANLFFHLINHLYERSSIILTSNKSPEEWGHLIGDQGITTAILDRLLHRVEVIHGGENEESHRMKNRKSIFSAEVLEHHHHHH”, the “soluble on expression in E. coli” value is listed as “not soluble”.

Consider “MREMTADPYLGKYITCVSARSTDKEILKKAQDGGIATALMVYALEEGIIDGTIVAGEGDRPWEPRPIVAMSREDILKARGTKYSISPQIAWLKEATRSFGLDKVGVTGVCCQMQAVRKAQLYPINMRDVPGKVALTVGLFCMENFPYKSLQTIVEDHAAQSLGSVKKMEITKGKFWVHTERGNVSTVPLKATHKYEQPGCHVCLDYVSSLADISTGSVGSPDGWSTVFIRTKKGNEVWSKAVAAGMFETKPIEDVKPGLELLTKLAKEKIDKNRKTLEERRNFGVNKALRDPYAAAALEHHHHHH”, for which the “soluble on expression in E. coli” value was “not soluble”.

In the case of “MGSDKIHHHHHHMLQAFYTGLSGLNSYSKNLDNVSNNIANMNTAGYRGMDSFYQALGGDSDKPGLGAQISGLGYRFSVGDIRQTGNDFDLAITGTGFFALLDGEKVFYTRTGQFEFDQNNVLVDKNTGFKVAGIDSNGQLSEINLLSYQAIKPTATTKLSLTGNLSPLDDVHQISSAKMINSLGEEVDLSIKFTNEKATFPNQWKVEILDDKGIVLHSDSVKFGPDGTPEVGSGSFIFNLADSSGNTTPIDITVGTIGDFSAVTQTSATGVDSNVTLHAVDGKGVGQLVKRSFDPQGRVTLNYSNGDKVTPFTIAMVDFDDISTLSIESGTVFKASDLESRVLGKAGEGRFKQLATSSIEMSNVDLSQEFADMLVIQRGYQASSRILNVANQMIEQLYENTRGR”, the “soluble on expression in E. coli” value is “not soluble”.

With “MPIDAMSDRNHAFASDEPPEIQVHPHDRYHAVIKKCASLPPLVTAVVHPVDSQVLSAVSDAVMEKLITPLLVGPAGRIEKAADEAGIDLSKWQVIDTPHSHAAAEKAVELAAAREVGAIMKGSLHTDELLGPIVARGSGLRTGRRLSHAYVMDTAGYHKWLIVTDAVVNISPDLCAKADICRNAVDAWVALTGESCLPKIAVLAAVEVVNAAMQATLDAAALCKMAERGQITGCIIDGPLAFDNAISRQAAKEKHIVSQVAGDADILLAPDIEAGNILAKQLTFISHADAAGVVMGAKVPVILTSRADNLRTRLLSCALAVLVQRAKEEGRIK”, the “soluble on expression in E. coli” value is “soluble”.

For “MDKLIIGGIEIKNRLFVGSGKYPSNEIIKDVLEGSGSQVITLALRRVDLDNKEEDILQNIPKDVILLPNTSGATNAEEAIRIARIARAMGCGNWIKIEVISDSKYLLPDNEETIKATKVLADEGFIVLPYMCPDIYAGRRLIEAGAAAVMPLGAPIGSNRGLKTKELIQIMIDELDIPIIVDAGIGKPSQAMEAMEMGAAACLVNTAIASSEDPINMARAFKVAVEGGRLAYEAKMGRESKFGNASSPLTGFLDLEHHHHHH”, the “soluble on expression in E. coli” value is “not soluble”.

Regarding “MSLQDIYGTLANLNTKLKQKLSHPYLAKHISAPKIDEDKLLLFHALFEEADIKNNDRENYIVTAMLVQSALDTHDEVTTARVIKRDENKNRQLTVLAGDYFSGLYYSLLSEMKDIYMIRTLATAIKEINEHKIRLYDRSFKDENDFFESVGIVESALFHRVAEHFNLPRWKKLSSDFFVFKRLMNGNDAFLDVIGSFIQLGKTKEEILEDCFKKAKNSIESLLPLNSPIQNILINRLKTISQDQTYHQKVEEGEGHHHHHH”, the “soluble on expression in E. coli” value is on record as “soluble”.

For “MSKKTPLNEIAEFDVSDYLRDDEDIAEYLTQVLAEGDSNELLRAIGYIAKARGITQLAKDTGLGRESLYKAFRAGSKPQFETVFKVLHALNINLKAIPKEVVSTRV”, the “soluble on expression in E. coli” value is “not soluble”.

In the case of “MTTYTFDQVEEAIEQLYPDFTINTIEISGEGNDCIAYEINGNFIFKFPKHSRASINLLNEVTVLKTIHNELSLPIPEVVFTGMPSEMCQMSFAGFTKIKGVPLTPLLLKNLPKQSQDQAAKDLARFLSELHSINISGFKSNLVLDFREKINEDNKKIKKLLSRELKGHQMKKVDDFYRDILDNEIYFKYYPCLIHNDFSSDHILFDTEKNTICGIIDFGDAAISDPDNDFISLMEDDEEYGMEFVSKILNHYKHKDIPTVLEKYMMKEKYWSFEKIIYGKEYGYMDWYEEGLNEIRSIKIK”, the “soluble on expression in E. coli” value is given as “soluble”.

For the sequence “SGELGEHRASLLSNPIPEVKTLGELKQGQNNGNLDLESEPFGSHWLQGSKATTGRTSEEPEEEIPPEEMAGEELPETSNLDGPLQQDLEVEVVEMSHLSITERTPSVSTAKGRKKRSRRLLELAKPKTNWQCLRDRPSVYWTERFIEDTTLTITVPVVSQRMEELSRPKRFYQEYYNNNRTTPIWSIPRSTLEYQASNRLKQLATPKVRNNIWSINMSEVSQVSRAAQMAVPTPRTLRLAKPRPPATLLEEWDPMPKPKPYVSDYNRLLQLATPKALSEKCVPDRSPQWEVLDVTKNAVASSRIISLAQPKIRKDLNEGYNPYYISPASLVAQASPRIYELATPKYITKKV”, the “soluble on expression in E. coli” value is “soluble”.

With “MSLESKYTVLDMFSGAGGLTEGFFQQGFKFVSHIEKNCHARNSLETRAIYHSLKDSSNERIYRDYISGNLNRDEFIHKFKELELTPAGLLQGEVTESNETTMIKEIKEHLKVIDSDSVDVVIGGPPCQAYSVAGRGRKPKEMKDDPRNYLYRHYISFLKSFEPKIFVFENVPGIKSAINGIIFSNLHEELEKLGYKTEAHMLNAKDFSVLQERNRIIFIGWKNEHDLSYPDFLKTPLGRFHVSSLLNDLPPLQAGEGTEGPAKYTKPFSWSSEYLQRFKIREKKDILIQHNARIHNPRDRTIYRLAIEKWDKERKRLKYNELSPELQTHKNKTSFLDRFKVVNQYGYSHAILAHISKDGHYFIHPDIHQARSLTVREVARIQSFPDNYKFEGPRIAQYAQIGNAVPPLMAKGIAVEIEKMLEEISEGHHHHHH”, the “soluble on expression in E. coli” value is reported as “not soluble”.

Take “MLAKRSIALTAATLLREPILRREDIADSLLARDILADARQQATQILALEQEKAEHLQQQALAQFWENANAFLGELQVQREALQEQAMTAVEELLSESLRHLLDDTTLAERARALARNLAASQLNEAVATLSVHPQIADAVAEWLADSRFSEHWQLKRDATIASDSLRLSDANGAFDIAWADLRKGLLGVEPAA”: the “soluble on expression in E. coli” value is “not soluble”.

“MAGVSTTQSGAIGVDRTQYMSSLVPEQALVQEAGQQYAEIVQEARAKGLLDRDPAQLSRVRAISQRLIAQTGVFRADAANWPWEVHVLSVDEVNAWCMPGGKIAVYTGLLAHIKPTDDELAAVLGHEIAHALREHARERVSQQMATSIGLSVLSMATGSPGASDLGGKLTEVMFTLPNSRTHETEADRMGVELAARAGFDPRAAVTLWQKMGAADGNAPPEFLSTHPSASTRIGELQQALQKVLPLYEQARGQAAKLEHHHHHH”: the “soluble on expression in E. coli” value is “not soluble”.

On to “MGSDKIHHHHHHMNEREICERIAEILNLEHDCSKGIDDLLKILEYEINEYRKSLEEQAMFMEAQIEELSRSYEEISTLLEISEIFGTFEFPLNLQDKLEKVIRLLRNVIKFESYLVHLESELTVGDLNREEIEPEIGNPEKTVLIEPGKSEKFSNLLFVPIKGNKYYGYVCFVGKEDGGVFTAGDRKIAEMTARYIASALDRLDFLKKEIERERLEEQLNIARQIQTNLLPRKIPEIGFVEADACSQPAVQVGGDYYDFFVSQEKRFLTVVGDVAGKSVPAALLMSAVRSYLKVLVTTCPDLEKLVNRLNTILCEDMTNDRFVTMAFIEISPDGTLNLINAGHNPVYFLHKGELVKIEASAIPIGITEWEYKKHTIHLKPDTFVISYSDGLTEARNEAGEEFGYERLEKILREFKGETPAELLEALRKRVKSFMGDAQQHDDMTIVVLKYKGQQEVE”, for which the “soluble on expression in E. coli” value is “not soluble”.

For “MTSGTTRWLDDCTPRALERFADELIAMAEQREDEARRRFYEGMAVAAKLIALRWEGKCAYIDDHLLDNVYEALAVFSLEKLEKTLAMEAEEAHGGGRCSFCLKEKPRLAKGPLAAICDDCLQFGLQVIAKQP”, the “soluble on expression in E. coli” value is given as “not soluble”.

The values are drawn from the DeepSol protein solubility set.
